# Laboratory results as given in US20220153790A1 (TECHNISCHE UNIVERSIT T M NCHEN, published 2022).
# Changes are numbered by the printed parent chain.
# B1: lipocalin variant P1E4 (designed binder)
# chain: QDSTSDLIPAPPLSKVPLQQNFQDNQFHGKWYVVGIAGNSMLREDKDPFKMTATIYELKEDKSYNVTRVRFDDKKCLYRILTFVPGSQPGEFTLGNIKSRPGWTSWLVRVVSTNYNQHAMVFFKRVHQNRETFWITLYGRTKELTSELKENFIRFSKSLGLPENHIVFPVPIDQCIDG
# notes: produced soluble in E. coli JM83, monomeric; also called Anticalin P1E4; not shown: C-terminal His6-tag (plasmid pNGAL118)
# B2: lipocalin variant D11vs (designed binder)
# chain: QDSTSDLIPAPPLSKVPLQQNFQDNQFHGKWYVVGRAGNTGLREDKDPGKMFATIYELKEDKSYNVTYVWSGQKKCMYSIVTFVPGSQPGEFTLGNIKSAPGRTSWLVRVVSTNYNQHAMVFFKSVTQNREGFAITLYGRTKELTSELKENFIRFSKSLGLPENHIVFPVPIDQCIDG
# notes: P3D11 variant with Phe71Ser and Gly81Val; also called Anticalin D11vs; not shown: C-terminal His6-tag (plasmid pNGAL118) as for the other soluble lipocalin variants
# B3: D11vs-PAS200-Cy5.5 (designed binder)
# chain: B2 chain
# modifications: Sulfo-Cyanine5.5 coupled by maleimide chemistry to the engineered C-terminal Cys
# notes: also called Cy5.5 labeled PASylated D11vs; Cy5.5-labeled D11vs-PAS200; not shown: C-terminal PAS200 polypeptide (200 Pro, Ala and Ser residues) with an engineered Cys at its end
# B4: SEQ ID NO 4 (designed binder)
# chain: B2 chain with M120L
# Columns and labels:
# [1] = target: T1, unglycosylated, monobiotinylated extracellular domain of human CD98hc produced in E. coli (human, UniProt P08195 111-529, single biotin on the N-terminal biotin acceptor peptide (BAP)); assay: SPR, complex dissociation half-life
# T1 construct: also called hCD98hcED; CD98hcED; not shown: N-terminal biotin acceptor peptide (BAP) from pASK-IBA5(+)-BAP-hCD98hcED
# T1 sequence: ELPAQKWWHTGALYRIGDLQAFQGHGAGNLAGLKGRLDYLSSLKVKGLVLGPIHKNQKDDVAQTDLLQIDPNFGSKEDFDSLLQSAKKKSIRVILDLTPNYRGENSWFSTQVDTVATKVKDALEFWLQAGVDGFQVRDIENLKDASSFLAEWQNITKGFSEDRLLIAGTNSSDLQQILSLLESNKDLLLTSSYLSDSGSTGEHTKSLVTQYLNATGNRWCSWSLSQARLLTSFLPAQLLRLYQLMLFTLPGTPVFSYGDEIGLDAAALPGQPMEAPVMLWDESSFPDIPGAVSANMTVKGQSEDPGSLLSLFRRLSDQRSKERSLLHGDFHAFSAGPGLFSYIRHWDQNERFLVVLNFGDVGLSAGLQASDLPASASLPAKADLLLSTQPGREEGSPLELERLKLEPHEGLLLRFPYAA
# Description: (§1) Real time surface plasmon resonance (SPR) spectroscopy was performed on a BIAcore 2000 system (BIAcore, Uppsala, Sweden) at 25° C. using HBS-T (20 mM Hepes/NaOH pH 7.5, 150 mM NaCl, 0.005% v/v Tween20) as running buffer. The purified biotinylated m/hCD98hcED (3 μg/ml protein solution in HBS-T produced in HEK cells or E. coli) was immobilized (ARU-225) via streptavidin on a CAP sensorchip of the Biotin CAPture kit (GE Healthcare). SPR single cycle kinetic experiments were performed using five consecutive injections of a 1:2 dilution series of the purified lipocalin variant at a flow rate of 25 μl/min, with 288 s contact time and 3500 s dissociation time after the fifth injection. For multi cycle kinetic experiments, eight samples from a consecutive 1:2 dilution series of the purified lipocalin variant were measured. Rate constants of association and dissociation were calculated from reference-corrected sensorgrams by fitting to a global 1:1 Langmuir binding model using BIAevaluation software (BIAcore). The equilibrium dissociation constants (KD value) were calculated as the quotient koff/kₒₙ. To test competitive binding of the lipocalin variants P3D11, P3A12 and P1E4 to glycosylated hCD98hcED, 100 nM of P3D11 was first injected and followed by a subsequent injection of either 100 nM P3A12 or 100 nM P1E4. HBS-T injections served as negative control.
# [2] = target: T2, fully glycosylated, monobiotinylated extracellular domain of human CD98hc produced in HEK 293E cells (human, UniProt P08195 111-529, N-linked glycosylation at Asn264, 280, 323 and 405 (UniProt P08195-2); single biotin on the N-terminal BAP); assay: SPR, complex dissociation half-life
# T2 construct: also called hCD98hcEDg; CD98hcEDg; not shown: N-terminal His6 tag and biotin acceptor peptide (BAP) from pDSG-BM-His6-BAP-hCD98hcEDg
# T2 sequence: T1 sequence
# Description: as §1
# [3] = target: T2, fully glycosylated, monobiotinylated …; assay: SPR, comparison of glycosylated and unglycosylated ectodomain
# Description: as §1
# [4] = target: T2, fully glycosylated, monobiotinylated …; assay: SPR, biotinylated hCD98hcEDg captured on CAP chip
# Description: as §1
# [5] = target: T1, unglycosylated, monobiotinylated …; assay: SPR (BIAcore 2000), biotinylated hCD98hcED captured on CAP chip, multiple cycle kinetics
# Description: as §1
# [6] = target: T2, fully glycosylated, monobiotinylated …; assay: not given
# [7] = target: T1, unglycosylated, monobiotinylated …; assay: SPR
# Description: as §1
# [8] = target: T1, unglycosylated, monobiotinylated …; assay: SPR (BIAcore 2000), biotinylated hCD98hcED captured on CAP chip, single cycle kinetics
# Description: as §1
# [9] = target: T2, fully glycosylated, monobiotinylated …; assay: flow cytometry, soluble hCD98hcEDg at 10-fold molar excess as competitor of cell binding
# Description: Cells growing in suspension (Ramos, Raji and SU-DHL-4) were directly washed with PBS (w/o Ca²⁺ and Mg²⁺). For each measurement, 250,000 viable cells were resuspended in 250 μl FACS buffer (PBS+10% (v/v) FBS) containing 1 μM D11vs-PAS200-Cy5.5 (cf. Supplementary information) and incubated for 1 h at 4° C. Competition experiments were performed by adding a 10-fold molar concentration of either unlabeled D11vs-PAS200 or the soluble glycosylated hCD98hcED. After incubation, cells were washed three times in PBS and finally resuspended in 250 μl FACS buffer. Flow cytofluorometric experiments were performed on a FACSAria Ilu instrument using an excitation wavelength of 650 nm and an emission band-path filter of 780/60 nm.
# As expected, no fluorescence staining for any of the tested cell lines was detected when using the Cy5.5-labeled PASylated wtLcn2.
# [10] = target: T1, unglycosylated, monobiotinylated …; assay: not given
binder,measurement,setting,value
B1,T½,[1],0.0183 h
same,T1/2,[2],< 0.0167 h
same,fold decrease of binding by N-glycosylation (hCD98hcEDg against hCD98hcED),[3],~100 fold
same,Kd,[4],162 nM
same,koff,[4],0.09 s⁻¹
same,kon,[4],560000 M⁻¹ s⁻¹
same,Kd,[5],4.5 nM
same,koff,[5],0.011 s⁻¹
same,kon,[5],2.5e+06 M⁻¹ s⁻¹
same,Kd,[6],≤ 200 nM
B2,T½,[1],7.37 h
same,T1/2,[2],8.72 h
same,Kd,[4],0.05 nM
same,koff,[4],2.2e-05 s⁻¹
same,kon,[4],460000 M⁻¹ s⁻¹
same,fold increase of affinity against P3D11,[7],~3 fold
same,Kd,[8],0.05 nM
same,koff,[8],2.6e-05 s⁻¹
same,kon,[8],450000 M⁻¹ s⁻¹
B3,binding result,[9],binds
B4,Kd,[10],≤ 5 nM
